Assay results as given in PMC5762878.

Columns and labels:
[1] = molecular target: Flavin reductase (FlaR), endogenous in S. pneumoniae WU2 (Streptococcus pneumoniae (endogenous in strain WU2)); experiment: SDS-PAGE and immunoblot of cell fractions; cytoplasmic and cell-wall fractions of WU2 WT, immunoblotted with rabbit anti-rFlaR antiserum; bands at ~17 kDa and 34 kDa in the cytoplasm, 34 kDa band also in the cell-wall fraction
[2] = molecular target: Recombinant flavin reductase (rFlaR), HAT-tagged (Streptococcus pneumoniae (strain WU2)); experiment: SDS-PAGE with or without β-mercaptoethanol + MALDI-TOF of the bands; HAT-tagged rFlaR purified on Ni-NTA under denaturing conditions; reducing gel: major band 22 kDa, minor 45 kDa; non-reducing gel: 45 kDa major, 22 kDa minor; both bands identified by in-gel digestion and MALDI-TOF and detected by rabbit anti-rFlaR antiserum

| Substance | stoichiometry N [1] | stoichiometry N [2] |
| --- | --- | --- |
| Flavin reductase (FlaR), endogenous in S. pneumoniae WU2 (from UniProt A0ACD7PR00 1-174) (enzyme) | 2 | – |
| Recombinant flavin reductase (rFlaR), HAT-tagged (from UniProt A0ACD7PR00 1-174) (enzyme) | – | 2 |
